Data as given in IntAct's records for PubMed 16083711.

B1: DNA mismatch repair protein Mlh1 (Homo sapiens), P40692 (parent)
chain: MSFVAGVIRRLDETVVNRIAAGEVIQRPANAIKEMIENCLDAKSTSIQVIVKEGGLKLIQIQDNGTGIRKEDLDIVCERFTTSKLQSFEDLASISTYGFRGEALASISHVAHVTITTKTADGKCAYRASYSDGKLKAPPKPCAGNQGTQITVEDLFYNIATRRKALKNPSEEYGKILEVVGRYSVHNAGISFSVKKQGETVADVRTLPNASTVDNIRSIFGNAVSRELIEIGCEDKTLAFKMNGYISNANYSVKKCIFLLFINHRLVESTSLRKAIETVYAAYLPKNTHPFLYLSLEISPQNVDVNVHPTKHEVHFLHEESILERVQQHIESKLLGSNSSRMYFTQTLLPGLAGPSGEMVKSTTSLTSSSTSGSSDKVYAHQMVRTDSREQKLDAFLQPLSKPLSSQPQAIVTEDKTDISSGRARQQDEEMLELPAPAEVAAKNQSLEGDTTKGTSEMSEKRGPTSSNPRKRHREDSDVEMVEDDSRKEMTAACTPRRRIINLTSVLSLQEEINEQGHEVLREMLHNHSFVGCVNPQWALAQHQTKLYLLNTTKLSEELFYQILIYDFANFGVLRLSEPAPLFDLAMLALDSPESGWTEEDGPKEGLAEYIVEFLKKKAEMLADYFSLEIDEEGNLIGLPLLIDNYVPPLEGLPIFILRLATEVNWDEEKECFESLSKECAMFYSIRKQYISEESTLSGQQSEVPGSIPNSWKWTVEHIVYKALRSHILPPKHFTEDGNILQLANLPDLYKVFERC
partner: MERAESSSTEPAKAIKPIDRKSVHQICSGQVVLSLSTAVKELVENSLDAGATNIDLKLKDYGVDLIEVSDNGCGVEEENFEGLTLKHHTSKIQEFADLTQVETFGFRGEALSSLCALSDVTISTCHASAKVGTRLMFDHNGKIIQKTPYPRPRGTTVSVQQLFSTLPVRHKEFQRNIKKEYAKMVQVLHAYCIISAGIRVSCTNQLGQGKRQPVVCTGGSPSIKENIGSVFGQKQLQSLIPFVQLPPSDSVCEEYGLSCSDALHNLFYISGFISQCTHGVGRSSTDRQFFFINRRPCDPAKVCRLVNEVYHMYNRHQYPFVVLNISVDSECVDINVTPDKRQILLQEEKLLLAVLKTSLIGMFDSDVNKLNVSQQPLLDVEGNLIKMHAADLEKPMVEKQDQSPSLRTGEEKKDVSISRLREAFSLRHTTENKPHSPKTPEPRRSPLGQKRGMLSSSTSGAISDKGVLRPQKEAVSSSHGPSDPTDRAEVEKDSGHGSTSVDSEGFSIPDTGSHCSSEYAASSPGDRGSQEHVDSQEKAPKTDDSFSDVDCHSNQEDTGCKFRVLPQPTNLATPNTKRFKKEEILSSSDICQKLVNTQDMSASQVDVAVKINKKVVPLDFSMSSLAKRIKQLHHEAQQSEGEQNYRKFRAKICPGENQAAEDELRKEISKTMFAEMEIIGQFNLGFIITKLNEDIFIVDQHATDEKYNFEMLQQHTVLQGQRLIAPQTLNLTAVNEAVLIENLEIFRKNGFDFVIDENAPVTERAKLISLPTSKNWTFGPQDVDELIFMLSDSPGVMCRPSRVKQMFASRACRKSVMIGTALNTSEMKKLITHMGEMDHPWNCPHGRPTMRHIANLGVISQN

Variants of: B1
Settings: with pms2_human PMS2, P54278

Variant	effect of a mutation on the interaction
P28L	with no effect
A29S	with no effect
G67R	with no effect
C77R	with no effect
F80V	with no effect
K84E	with no effect
S93G	with no effect
I107R	with no effect
L155R	with no effect
V213M	with no effect
I219V	with no effect
S247P	with no effect
H329P	with no effect
K443Q	with no effect
